From the Human Domainome abundance scans (Beltran et al. 2025) come the findings set out here.

± gives the uncertainty stated by the source.

To fix the notation:
B1: Gamma-crystallin C, residues 91 to 170; numbered along this chain, P07315 (parent)
chain: RLYEREDHKGLMMELSEDCPSIQDRFHLSEIRSLHVLEGCWVLYELPNYRGRQYLLRPQEYRRCQDWGAMDAKAGSLRRV

The data set covers variants of B1. Description: abundance fitness (aPCA) (normalised: wild type 0, dead -1); higher = more abundant; growth selection in yeast, the domain comes from the species named. As to conditions: Homo sapiens.
On to E6N, for which the abundance fitness is -0.416 ± 0.43.

Turning to E6Q, the abundance fitness was -0.445 ± 0.41.

As for E6D, the abundance fitness was -0.538 ± 0.19.

On to E6Y, for which the abundance fitness is -0.64 ± 0.41.

With E6V, the abundance fitness was -0.53 ± 0.15.

Regarding G10H, the abundance fitness is -0.818 ± 0.19.

For G10A, the abundance fitness was -0.976 ± 0.12.

Take G10L: the abundance fitness is -1.06 ± 0.17.

Regarding G10F, the abundance fitness was -0.717 ± 0.17.

As to G10D, the abundance fitness is -0.731 ± 0.14.

Consider G10C, for which the abundance fitness was -0.905 ± 0.22.

Turning to D7R, the abundance fitness was -0.505 ± 0.085.

Regarding D7Y, the abundance fitness was -0.098 ± 0.16.

Take D7F: the abundance fitness was -0.203 ± 0.17.

D7V: the abundance fitness is -0.936 ± 0.12.

Consider D7E, for which the abundance fitness is -0.03 ± 0.093.

Consider D7L, for which the abundance fitness was -0.554 ± 0.078.

As to D7A, the abundance fitness is -0.248 ± 0.061.

On to D7K, for which the abundance fitness is -0.578 ± 0.15.

Regarding D7P, the abundance fitness was -0.846 ± 0.2.

With D7Q, the abundance fitness is -0.273 ± 0.14.

Take D7C: the abundance fitness was -0.237 ± 0.099.

As for D7H, the abundance fitness was -0.221 ± 0.27.

As for D7T, the abundance fitness was -0.995 ± 0.26.

For D7G, the abundance fitness was -0.186 ± 0.057.

D7S: the abundance fitness is -0.277 ± 0.064.

Consider D7M, for which the abundance fitness is -0.241 ± 0.076.

L2M: the abundance fitness is -0.346 ± 0.042.

As to L2W, the abundance fitness was -0.847 ± 0.22.

In the case of L2C, the abundance fitness was -0.777 ± 0.34.

In the case of L2P, the abundance fitness was -1.13 ± 0.48.

Turning to L2T, the abundance fitness was -0.622 ± 0.31.

Regarding L2A, the abundance fitness is -0.494 ± 0.13.

As for L2Y, the abundance fitness was -0.936 ± 0.41.

For L2G, the abundance fitness was -0.922 ± 0.2.

For L2V, the abundance fitness is -0.714 ± 0.18.

Consider H8Y, for which the abundance fitness worked out at 0.111 ± 0.1.

On to K9V, for which the abundance fitness was -0.402 ± 0.068.

Regarding K9S, the abundance fitness is -0.241 ± 0.087.

As to K9Q, the abundance fitness was determined as 0.117 ± 0.11.

In the case of K9T, the abundance fitness is -0.156 ± 0.096.

Consider K9P, for which the abundance fitness was -0.728 ± 0.16.

With K9H, the abundance fitness is -0.174 ± 0.11.

Take K9C: the abundance fitness is -0.103 ± 0.11.

Turning to K9E, the abundance fitness was 0.017 ± 0.073.

Turning to K9Y, the abundance fitness was -0.467 ± 0.24.

For the variant K9N, the abundance fitness is -0.085 ± 0.14.

In the case of K9R, the abundance fitness is -0.132 ± 0.07.

For K9G, the abundance fitness is -0.171 ± 0.047.

With K9D, the abundance fitness is -0.254 ± 0.083.

As to K9M, the abundance fitness was 0.212 ± 0.12.

Regarding K9I, the abundance fitness was -0.68 ± 0.17.

Consider K9A, for which the abundance fitness is -0.129 ± 0.053.

On to K9W, for which the abundance fitness is -0.909 ± 0.36.

Consider K9F, for which the abundance fitness was -0.559 ± 0.25.

Take E4N: the abundance fitness is -0.261 ± 0.12.

With E4Y, the abundance fitness is -0.7 ± 0.25.

Regarding E4A, the abundance fitness was -0.129 ± 0.063.

With E4H, the abundance fitness was -0.571 ± 0.15.

Consider E4C, for which the abundance fitness is -0.291 ± 0.13.

For E4I, the abundance fitness was -0.746 ± 0.22.

For the variant E4D, the abundance fitness was -0.153 ± 0.098.

Consider E4M, for which the abundance fitness was -0.019 ± 0.26.

As for E4T, the abundance fitness is -0.123 ± 0.094.

With E4S, the abundance fitness was -0.027 ± 0.057.

With E4P, the abundance fitness was -0.341 ± 0.11.

As to E4K, the abundance fitness is -0.375 ± 0.14.

On to E4F, for which the abundance fitness is -0.347 ± 0.2.

Regarding E4L, the abundance fitness was -0.339 ± 0.083.

In the case of E4R, the abundance fitness is -0.582 ± 0.1.

Consider E4W, for which the abundance fitness is -0.78 ± 0.19.

Consider E4G, for which the abundance fitness was -0.348 ± 0.063.

On to R1D, for which the abundance fitness was -0.857 ± 0.34.

On to R1W, for which the abundance fitness is -0.404 ± 0.27.

With R1V, the abundance fitness is -0.381 ± 0.17.

On to R1G, for which the abundance fitness was -0.879 ± 0.15.

Regarding R1T, the abundance fitness was -0.314 ± 0.17.

R1K: the abundance fitness was -0.072 ± 0.21.

In the case of R1I, the abundance fitness came to 0.241 ± 0.42.

As to R1S, the abundance fitness was -0.936 ± 0.17.

As to R1E, the abundance fitness was -0.756 ± 0.22.
